Test results taken from patent US20250043302A1, “MUTATED HYDROXYPHENYLPYRUVATE DIOXYGENASE POLYPEPTIDE, AND CODING GENE AND USE THEREOF” (BEIJING DABEINONG BIOTECHNOLOGY CO., LTD., priority 2021, published 2025).
Substitutions are numbered along the chain they refer to. In names and notes the source's numbering stands.

B1: OsHPPD-02: nucleotide sequence encoding wild-type Oryza sativa HPPD; vector DBN11754 (nucleic acid)
DNA: ATGCCACCCACGCCAACACCAACGGCCACCACTGGTGCCGTCTCGGCCGCGGCAGCGGCCGGTGAGAATGCTGGTTTCAGGCTAGTCGGCCACCGCCGCTTCGTGAGGGCAAATCCAAGATCTGATCGGTTCCAAGCACTTGCTTTCCACCATGTTGAGCTGTGGTGCGCTGACGCCGCTTCAGCTGCCGGGAGGTTTGCTTTTGCTTTAGGGGCGCCGCTCGCCGCAAGGAGTGATCTTTCCACCGGAAATTCTGCTCATGCTTCTCTTCTACTTAGATCAGCAAGTGTTGCATTTCTGTTCACTGCACCTTATGGCGGAGACCATGGTGTCGGGGCCGATGCTGCAACAACAGCTAGCATACCATCATTTTCTCCCGGCGCCGCAAGAAGATTTGCAGCCGATCATGGCCTGGCAGTTCATGCTGTGGCATTGAGGGTCGCCGACGCGGCTGATGCGTTCCGCGCCAGCGTGGCTGCTGGAGCTAGGCCGGCGTTCCAGCCTGCTGACCTTGGGGGTGGATTTGGATTGGCGGAGGTTGAATTATATGGTGATGTTGTGCTCCGTTTTGTTTCCCATCCAGATGGTGCTGATGCTCCATTTCTACCTGGATTTGAAGGGGTGTCAAACCCCGGCGCGGTGGATTATGGACTGCGTCGATTTGATCACGTGGTAGGTAATGTTCCTGAGTTGGCTCCCGTGGCGGCCTACATTTCAGGCTTTACTGGCTTCCATGAATTTGCCGAGTTCACCGCGGAAGATGTGGGAACTGCTGAAAGTGGATTGAACTCTGTTGTCCTGGCGAACAATGCAGAGACTGTATTGCTCCCCTTGAATGAGCCTGTGCACGGCACCAAACGGCGATCTCAAATTCAGACATACCTCGACCACCACGGGGGCCCTGGTGTTCAGCATATTGCTCTAGCCAGCGACGACGTACTGGGAACACTGAGGGAGATGAGAGCCCGTTCCGCCATGGGTGGCTTTGAGTTTCTGGCCCCTCCGCCGCCAAACTACTACGACGGCGTCAGACGGCGGGCGGGTGACGTCTTGAGTGAGGAGCAGATCAATGAATGTCAAGAACTTGGGGTTCTTGTTGATAGAGATGATCAAGGAGTGCTCCTCCAAATATTCACAAAACCTGTTGGCGACCGCCCGACCTTCTTCCTTGAAATGATCCAAAGGATCGGCTGCATGGAGAAGGATGAATCGGGCCAGGAGTACCAGAAGGGTGGGTGTGGTGGCTTTGGGAAGGGCAACTTCAGCGAGCTGTTCAAGTCAATTGAAGAATATGAAAAATCATTGGAGGCAAAGCAAGCTCCGACGGTGCAGGGAAGCTGA
modifications: OsHPPD-02 Nucleotide Sequence
notes: vector DBN11754
B2: OsHPPDm-F372A-F383W-02: nucleotide sequence encoding Oryza sativa HPPD with F372A+F383W; vector DBN11757 (nucleic acid)
DNA: B1 DNA with T1132G, T1133C, T1166G, C1167G
modifications: OsHPPDm-F372A-F383W-02 Nucleotide Sequence
notes: vector DBN11757

How the values were obtained:
Assay type in all cases: in vivo
[1] = tested on: Arabidopsis thaliana T1 plants; test: Mesotrione tolerance of transgenic Arabidopsis thaliana T1 plants (spray, bleached leaf area grade, damage score); parameters: Scores: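 damage score 0-100 computed as Σ(N×S)/(T×M)×100 over grades 0-3 with higher meaning more damage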; settings: Arabidopsis thaliana T1 plants; for Grade 0 (classification and statistics of the grade of pesticide damage; number of plants) / Grade 1 (classification and statistics of the grade of pesticide damage; number of plants) / Grade 2 (classification and statistics of the grade of pesticide damage; number of plants) / Grade 3 (classification and statistics of the grade of pesticide damage; number of plants): 16 plants
In short: (§1)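 Read-out: per-plant damage grade 0–3 from proportion of bleached leaf area at 7 DAT (1 <50%, 2 >50%, 3 100%). Plants were T1 transformants, glufosinate-selected, plus wild-type CK, sprayed 18 days post-sowing. Rates: topramezone 25–200, isoxaflutole 35–280, mesotrione 52.5–420 g ai/ha.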

[2] = tested on: Arabidopsis thaliana T1 plants; test: Topramezone tolerance of transgenic Arabidopsis thaliana T1 plants (spray, bleached leaf area grade, damage score); settings: 7 DAT, Table 4; for Classification and statistics of the grade of pesticide damage: Grade 0 / Classification and statistics of the grade of pesticide damage: Grade 1 / Classification and statistics of the grade of pesticide damage: Grade 2 / Classification and statistics of the grade of pesticide damage: Grade 3: number of plants; for Scores: pesticide damage score 0-100
In short: as §1

[3] = tested on: Arabidopsis thaliana T1 plants; test: Isoxaflutole tolerance of transgenic Arabidopsis thaliana T1 plants (spray, bleached leaf area grade, damage score); parameters: Scores (pesticide damage): scale not given here; settings: spray, Arabidopsis thaliana T1 plants; for Classification and statistics of the grade of pesticide damage: Grade 0 (number of plants) / Classification and statistics of the grade of pesticide damage: Grade 1 (number of plants) / Classification and statistics of the grade of pesticide damage: Grade 2 (number of plants) / Classification and statistics of the grade of pesticide damage: Grade 3 (number of plants): 16 plants
In short: as §1

[4] = isoxaflutole 35 g ai/ha (0.5x field concentration)
[5] = isoxaflutole 70 g ai/ha (1x field concentration)

| Molecule | Resistance evaluation ([1]; mesotrione 52.5 g ai/ha) | Scores ([1]; mesotrione 52.5 g ai/ha) | Grade 0 (classification and statistics of the grade of pesticide damage; number of plants) ([1]; mesotrione 52.5 g ai/ha) | Grade 1 (classification and statistics of the grade of pesticide damage; number of plants) ([1]; mesotrione 52.5 g ai/ha) | Grade 2 (classification and statistics of the grade of pesticide damage; number of plants) ([1]; mesotrione 52.5 g ai/ha) | Grade 3 (classification and statistics of the grade of pesticide damage; number of plants) ([1]; mesotrione 52.5 g ai/ha) | Resistance evaluation ([1]; mesotrione 105 g ai/ha) | Scores ([1]; mesotrione 105 g ai/ha) | Grade 0 (classification and statistics of the grade of pesticide damage; number of plants) ([1]; mesotrione 105 g ai/ha) | Grade 1 (classification and statistics of the grade of pesticide damage; number of plants) ([1]; mesotrione 105 g ai/ha) | Grade 2 (classification and statistics of the grade of pesticide damage; number of plants) ([1]; mesotrione 105 g ai/ha) | Grade 3 (classification and statistics of the grade of pesticide damage; number of plants) ([1]; mesotrione 105 g ai/ha) | Classification and statistics of the grade of pesticide damage: Grade 0 ([2]; topramezone 25 g ai/ha (1×)) | Classification and statistics of the grade of pesticide damage: Grade 1 ([2]; topramezone 25 g ai/ha (1×)) | Classification and statistics of the grade of pesticide damage: Grade 2 ([2]; topramezone 25 g ai/ha (1×)) | Classification and statistics of the grade of pesticide damage: Grade 3 ([2]; topramezone 25 g ai/ha (1×)) | Classification and statistics of the grade of pesticide damage: Grade 0 ([2]; topramezone 100 g ai/ha (4×)) | Classification and statistics of the grade of pesticide damage: Grade 1 ([2]; topramezone 100 g ai/ha (4×)) | Classification and statistics of the grade of pesticide damage: Grade 2 ([2]; topramezone 100 g ai/ha (4×)) | Classification and statistics of the grade of pesticide damage: Grade 3 ([2]; topramezone 100 g ai/ha (4×)) | also measured |
| --- | --- | --- | --- | --- | --- | --- | --- | --- | --- | --- | --- | --- | --- | --- | --- | --- | --- | --- | --- | --- | --- |
| B1 | Non-resistant | 100 | 0 | 0 | 0 | 16 | Non-resistant | 100 | 0 | 0 | 0 | 16 | 0 | 0 | 0 | 16 | 0 | 0 | 0 | 16 | Scores ([2]; topramezone 25 g ai/ha (1×)): 100; Scores ([2]; topramezone 100 g ai/ha (4×)): 100; Resistance evaluation ([2]; topramezone 25 g ai/ha (1×)): non-resistant (non-resistant plants (scores 68-100)); Resistance evaluation ([2]; topramezone 100 g ai/ha (4×)): non-resistant (non-resistant plants (scores 68-100)); Resistance evaluation [3, 4]: Non-resistant; Scores (pesticide damage) [3, 4]: 100; Classification and statistics of the grade of pesticide damage: Grade 0 (number of plants) [3, 4]: 0; Classification and statistics of the grade of pesticide damage: Grade 1 (number of plants) [3, 4]: 0; Classification and statistics of the grade of pesticide damage: Grade 2 (number of plants) [3, 4]: 0; Classification and statistics of the grade of pesticide damage: Grade 3 (number of plants) [3, 4]: 16; Resistance evaluation [3, 5]: Non-resistant; Scores (pesticide damage) [3, 5]: 100; Classification and statistics of the grade of pesticide damage: Grade 0 (number of plants) [3, 5]: 0; Classification and statistics of the grade of pesticide damage: Grade 1 (number of plants) [3, 5]: 0; Classification and statistics of the grade of pesticide damage: Grade 2 (number of plants) [3, 5]: 0; Classification and statistics of the grade of pesticide damage: Grade 3 (number of plants) [3, 5]: 16 |
| B2 | Highly resistant | 15 | 9 | 7 | 0 | 0 | Poorly resistant | 38 | 0 | 14 | 2 | 0 | 10 | 6 | 0 | 0 | 2 | 13 | 1 | 0 | Scores ([2]; topramezone 25 g ai/ha (1×)): 13; Scores ([2]; topramezone 100 g ai/ha (4×)): 31; Resistance evaluation ([2]; topramezone 25 g ai/ha (1×)): highly; Resistance evaluation ([2]; topramezone 100 g ai/ha (4×)): moderately; Resistance evaluation [3, 4]: Highly; Scores (pesticide damage) [3, 4]: 10; Classification and statistics of the grade of pesticide damage: Grade 0 (number of plants) [3, 4]: 11; Classification and statistics of the grade of pesticide damage: Grade 1 (number of plants) [3, 4]: 5; Classification and statistics of the grade of pesticide damage: Grade 2 (number of plants) [3, 4]: 0; Classification and statistics of the grade of pesticide damage: Grade 3 (number of plants) [3, 4]: 0; Resistance evaluation [3, 5]: Highly; Scores (pesticide damage) [3, 5]: 15; Classification and statistics of the grade of pesticide damage: Grade 0 (number of plants) [3, 5]: 9; Classification and statistics of the grade of pesticide damage: Grade 1 (number of plants) [3, 5]: 7; Classification and statistics of the grade of pesticide damage: Grade 2 (number of plants) [3, 5]: 0; Classification and statistics of the grade of pesticide damage: Grade 3 (number of plants) [3, 5]: 0 |
